Earlier results in PMC6289583.

How the values were obtained:
Moesin = Moesin (UniProt P26038)
EBP50 (Homo sapiens) = EBP50 (Homo sapiens) (UniProt O14745); test: SPR
ICAM-2 (Homo sapiens) = ICAM-2 (Homo sapiens) (UniProt P13598)
ICAM-2 (Homo sapiens), sequence (P13598 25-275): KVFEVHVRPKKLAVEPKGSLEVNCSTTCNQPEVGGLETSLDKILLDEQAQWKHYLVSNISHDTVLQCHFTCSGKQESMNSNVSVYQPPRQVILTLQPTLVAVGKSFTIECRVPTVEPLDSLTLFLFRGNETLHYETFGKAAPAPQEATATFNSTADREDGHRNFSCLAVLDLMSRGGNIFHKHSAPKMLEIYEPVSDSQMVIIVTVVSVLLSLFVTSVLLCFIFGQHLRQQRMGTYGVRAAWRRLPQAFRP

Ezrin, sequence (P15311 whole entry): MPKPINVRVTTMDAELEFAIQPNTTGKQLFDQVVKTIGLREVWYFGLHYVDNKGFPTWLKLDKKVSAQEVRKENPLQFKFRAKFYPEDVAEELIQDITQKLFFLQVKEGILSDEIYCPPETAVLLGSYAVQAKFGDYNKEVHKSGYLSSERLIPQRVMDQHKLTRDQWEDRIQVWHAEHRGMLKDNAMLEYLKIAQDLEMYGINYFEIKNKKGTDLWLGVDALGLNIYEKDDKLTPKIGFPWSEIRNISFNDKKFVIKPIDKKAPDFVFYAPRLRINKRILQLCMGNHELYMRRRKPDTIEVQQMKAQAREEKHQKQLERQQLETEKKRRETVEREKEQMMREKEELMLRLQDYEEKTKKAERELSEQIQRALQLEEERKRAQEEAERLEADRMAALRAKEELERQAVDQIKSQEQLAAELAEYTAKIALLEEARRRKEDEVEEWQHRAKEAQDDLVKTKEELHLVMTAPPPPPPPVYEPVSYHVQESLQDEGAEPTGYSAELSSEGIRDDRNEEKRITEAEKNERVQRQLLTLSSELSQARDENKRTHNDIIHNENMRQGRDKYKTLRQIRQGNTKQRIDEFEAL
CD44 cytoplasmic domain, sequence (P16070 671-742): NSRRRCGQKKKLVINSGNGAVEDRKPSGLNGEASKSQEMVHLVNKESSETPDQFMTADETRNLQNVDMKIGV
Moesin, sequence (P26038 2-577): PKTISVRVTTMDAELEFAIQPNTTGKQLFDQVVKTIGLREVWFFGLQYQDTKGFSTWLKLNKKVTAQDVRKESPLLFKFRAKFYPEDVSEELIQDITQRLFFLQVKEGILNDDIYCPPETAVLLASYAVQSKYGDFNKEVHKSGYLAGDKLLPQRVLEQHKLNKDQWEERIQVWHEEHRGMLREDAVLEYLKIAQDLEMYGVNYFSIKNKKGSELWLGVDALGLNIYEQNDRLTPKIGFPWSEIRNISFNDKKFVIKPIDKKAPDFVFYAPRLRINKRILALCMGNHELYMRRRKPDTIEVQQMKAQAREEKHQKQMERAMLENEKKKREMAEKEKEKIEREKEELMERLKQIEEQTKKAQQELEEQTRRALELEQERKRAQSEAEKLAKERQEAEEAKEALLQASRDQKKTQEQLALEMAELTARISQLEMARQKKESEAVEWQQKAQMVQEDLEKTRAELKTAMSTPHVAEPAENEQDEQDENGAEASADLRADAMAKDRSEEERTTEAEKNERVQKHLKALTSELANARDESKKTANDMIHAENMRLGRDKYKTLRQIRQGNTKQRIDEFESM
EBP50 (Homo sapiens), sequence (O14745 2-358): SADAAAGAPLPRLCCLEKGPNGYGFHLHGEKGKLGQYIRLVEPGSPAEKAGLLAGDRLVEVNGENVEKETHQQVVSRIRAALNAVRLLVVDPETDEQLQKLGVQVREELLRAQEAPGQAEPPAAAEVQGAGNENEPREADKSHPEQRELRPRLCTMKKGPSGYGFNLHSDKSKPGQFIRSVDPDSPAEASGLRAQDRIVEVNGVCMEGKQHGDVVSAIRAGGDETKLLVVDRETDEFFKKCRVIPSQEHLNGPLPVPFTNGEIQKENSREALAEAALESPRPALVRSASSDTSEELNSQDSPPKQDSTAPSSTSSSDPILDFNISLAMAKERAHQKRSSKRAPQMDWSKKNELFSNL

Kd (Moesin) [nM]	Kd (EBP50 (Homo sapiens)) [nM]	Kd (ICAM-2 (Homo sapiens)) [nM]	Substance
9.3	–	–	CD44 cytoplasmic domain (from UniProt P16070)
–	58	330	Ezrin (from UniProt P15311)
